Where no end group is shown, it is not given here.

The values below come from patent US20260242478A1 (published 2026).

Experiment [1] has as its target T1, Anti-CD28 Fab (SEQ ID NOs: 696, 697).
T1 construct: In the phage ELISA the Fab was biotinylated and captured on neutravidin coated plates
The experiment in a line: phage binding ELISA on captured anti-CD28 Fab; wells pre-incubated with CD28 antigen as competitor. Background: An ELISA detects its analyte on a solid surface through an enzyme-linked reagent.

The target is the same in experiment [2]. Nature of the experiment: phage binding ELISA; biotinylated anti-CD28 Fab on neutravidin plate, clonal phage supernatant, anti-M13 HRP.
In experiment [3] the target is Ab-15. The experiment in a line: BLI (Octet): biotinylated peptide on sensor, Ab-15 titrated, 1:1 model. (In BLI a coated tip is dipped into the sample, and binding shifts an interference pattern.)
For experiment [4], the target named is Ab-15. Nature of the experiment: binding ELISA: biotinylated peptide on neutravidin plate, Ab-15 titrated.
For experiment [5], the target named is Ab-15. Nature of the experiment: BLI (Octet): sensor loaded with 200 nM biotinylated peptide, 100 nM Ab-15.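 Further: binding association and dissociation tracked in real time, fitted to a 1:1 binding model.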
For experiment [6], the target named is Ab-15. The experiment in a line: competition ELISA: peptide titrated against 1 nM Ab-15; competitor plate-bound CD28.
The target of experiment [7] is T2, PSMA Fab.
T2 construct: also called 006 PSMA Fab; anti-PSMA Fab
The experiment in a line: BLI (Octet); PSMA Fab on sensor-loaded biotinylated peptide, 1:1 model.

Experiment [8] deals with T2, PSMA Fab. The experiment in a line: binding ELISA; PSMA Fab titrated on plate-captured biotinylated peptide.
Experiment [9] has as its target T2, PSMA Fab. Nature of the experiment: competition ELISA; peptide 0-100 µM with 0.3 nM PSMA Fab on plate-captured biotinylated PSMA.

B1: Phage-1355 (peptide)
peptide: LCSAGAMWPWPTCL
notes: Clonal phage of the Peptide-92 library, tested as crude supernatant; not shown: fused to the pIII filament of the bacteriophage
In the case of B1, the “Anti-CD28 Fab signal in the presence of CD28” value (“Anti-CD28 Fab signal” for short) in experiment [1] stood at 0.08. In addition, the “Anti-CD28 Fab (SEQ ID NOs: 696, 697) signal” value in experiment [2] was found to be 2.39.
In the case of RDWCPRDLWVHCFA (cysteine pairing not given here; also: biotinylated, site not given here, CD28 peptide mask) [Peptide-53], in the experiment with Ab-15 [3], binding was put at a Kd of 20.3 nM and the t1/2 was determined as 6.2 min. A half-maximal effect with Ab-15 [4] (EC50) was put at 14.6 nM. Moreover, in the experiment with Ab-15 [5], the Octet signal is 1.22 and the t1/2 was 4.9 min. Besides, the half-maximal inhibitory concentration (IC50) (in general, the concentration at which inhibition is half-maximal) with Ab-15 [6] was 170 nM.
In the case of QDWCPRDLWVHCFA (cysteine pairing not given here; also: biotinylated, site not given here, CD28 peptide mask) [Peptide-56], in the experiment with Ab-15 [3], the Kd (usually the free concentration of one partner at which half of the binding sites on the other are occupied at equilibrium, for simple one-to-one binding) came out at 24.6 nM and the t1/2 is 4.2 min. Besides, the concentration giving a half-maximal response (EC50) – broadly, the concentration needed to bring the measured effect to its halfway point – with Ab-15 [4] was 25.7 nM. Besides, in the experiment with Ab-15 [5], the Octet signal turned out to be 1.12 and the t1/2 turned out to be 3.6 min. The same molecule displayed a half-inhibitory concentration (IC50) in the experiment with Ab-15 [6] of 330 nM.
In the experiment with Ab-15 [3], KDWCPRDLWVHCFA (cysteine pairing not given here; also: biotinylated, site not given here, CD28 peptide mask) [Peptide-62] registered a dissociation constant (Kd) of 26.1 nM and a t1/2 of 4.5 min. This molecule came in with an EC50 in the experiment with Ab-15 [4] of 19.7 nM. In the experiment with Ab-15 [5], the Octet signal was 1.13 and the t1/2 was 4 min. The IC50 with Ab-15 [6] was 190 nM.
In the experiment with Ab-15 [3], EDWCPRDLWVHCFA (cysteine pairing not given here; also: biotinylated, site not given here, CD28 peptide mask) [Peptide-57] returned a dissociation constant (Kd) of 23.2 nM and a t1/2 of 3.1 min. This molecule displayed an EC50 in the experiment with Ab-15 [4] of 32.8 nM. In the experiment with Ab-15 [5], the Octet signal is 1.02 and the t1/2 is 3 min. In the experiment with Ab-15 [6], this molecule gave an IC50 of 300 nM.
Regarding TDWCPRDLWVHCFA (cysteine pairing not given here; also: biotinylated, site not given here, CD28 peptide mask) [Peptide-66], in the experiment with Ab-15 [3], binding was put at a Kd of 25.5 nM and the t1/2 was 4.7 min. The EC50 in the experiment with Ab-15 [4] is 24 nM. In the experiment with Ab-15 [5], this molecule yielded an Octet signal of 1.34 and a t1/2 of 4.2 min. The IC50 with Ab-15 [6] was found to be 590 nM.

B2: Phage-1356 (peptide)
peptide: LCSAGAMYSWPTCL
notes: as for B1
For B2, in experiment [1], the “Anti-CD28 Fab signal” value was 0.12. Moreover, the “Anti-CD28 Fab (SEQ ID NOs: 696, 697) signal” value in experiment [2] was 2.39.

B3: Peptide-284 (peptide)
peptide: TEVRCTPPWMCLGF
notes: From the Peptide-180 optimisation phage library
For the molecule B3, the “Off rate t1/2” value with PSMA Fab [7] was found to be 1.4 min. The molecule further showed an EC50 with PSMA Fab [8] of 20 nM. Besides, the IC50 with PSMA Fab [9] is 970 nM.

B4: Phage-1345 (peptide)
peptide: SCSAGAHYPWPQCF
notes: as for B1
As for B4, the “Anti-CD28 Fab signal” value in experiment [1] is 0.06. Moreover, in [2], the “Anti-CD28 Fab (SEQ ID NOs: 696, 697) signal” value was 1.16.

B5: Phage-1350 (peptide)
peptide: TCAAGATYLWPTCL
notes: as for B1
Consider B5, for which, in experiment [1], the “Anti-CD28 Fab signal” value was determined as 0.06. In addition, the “Anti-CD28 Fab (SEQ ID NOs: 696, 697) signal” value in experiment [2] is 1.68.

B6: Phage-1346 (peptide)
peptide: TCSAGATYEWPRCL
notes: as for B1
Take B6: the “Anti-CD28 Fab signal” value in experiment [1] was 0.06. Also, in experiment [2], the “Anti-CD28 Fab (SEQ ID NOs: 696, 697) signal” value worked out at 1.84.

B7: Peptide-283 (peptide)
peptide: TVAYCKPAWMCQGF
notes: as for B3
For the molecule B7, the “Off rate t1/2” value with PSMA Fab [7] was 1.4 min. Moreover, the EC50 with PSMA Fab [8] stood at 7.8 nM. Moreover, the concentration for half-maximal inhibition (IC50) in the experiment with PSMA Fab [9] was determined as 820 nM.

B8: Phage-1347 (peptide)
peptide: TCSAGAHYPWPICL
notes: as for B1
In the case of B8, in experiment [1], the “Anti-CD28 Fab signal” value came to 0.07. The “Anti-CD28 Fab (SEQ ID NOs: 696, 697) signal” value in experiment [2] turned out to be 1.78.

B9: Peptide-271 (peptide)
peptide: EDILCKPKWMCEGF
notes: as for B3
B9: in the experiment with PSMA Fab [7], the “Off rate t1/2” value was 3.3 min. Besides, the EC50 with PSMA Fab [8] was 5.7 nM. In the experiment with PSMA Fab [9], this molecule yielded an IC50 of 300 nM.

B10: Phage-1349 (peptide)
peptide: TCSAGATWAWPLCF
notes: as for B1
As for B10, in experiment [1], the “Anti-CD28 Fab signal” value came out at 0.09. In experiment [2], the “Anti-CD28 Fab (SEQ ID NOs: 696, 697) signal” value is 2.31.

B11: Peptide-274 (peptide)
peptide: ITPVCKPLWMCSGL
notes: as for B3
For B11, the “Off rate t1/2” value with PSMA Fab [7] was 3.3 min. The molecule further registered a concentration giving a half-maximal response (EC50) with PSMA Fab [8] of 4 nM. This molecule also registered an IC50 in the experiment with PSMA Fab [9] of 330 nM.

B12: Peptide-268 (peptide)
peptide: VEKVCKPVWMCVGF
notes: as for B3
Turning to B12, in the experiment with PSMA Fab [7], the “Off rate t1/2” value is 3 min. In the experiment with PSMA Fab [8], this molecule yielded a concentration for a half-maximal effect (EC50) of 5.1 nM. This molecule also registered a half-inhibitory concentration (IC50) with PSMA Fab [9] of 250 nM.

B13: Peptide-270 (peptide)
peptide: ESRLCVPAWMCAGF
notes: as for B3
B13: in the experiment with PSMA Fab [7], the “Off rate t1/2” value worked out at 1.4 min. For the same molecule, it took 17.3 nM to reach a half-maximal effect with PSMA Fab [8] (EC50). The same molecule registered an IC50 with PSMA Fab [9] of 700 nM.

B14: Peptide-263 (peptide)
peptide: AVKACIPEWMCIGF
notes: as for B3
In the case of B14, the “Off rate t1/2” value with PSMA Fab [7] was determined as 2.3 min. For the same molecule, the concentration giving a half-maximal response (EC50) in the experiment with PSMA Fab [8] was determined as 8.4 nM. The IC50 in the experiment with PSMA Fab [9] was determined as 620 nM.

B15: Phage-1351 (peptide)
peptide: TCAAGAHYPWPACL
notes: as for B1
As for B15, in [1], the “Anti-CD28 Fab signal” value came out at 0.07. For the same molecule, the “Anti-CD28 Fab (SEQ ID NOs: 696, 697) signal” value in [2] is 1.92.

B16: Phage-1353 (peptide)
peptide: LCKPGVPYKWPTCL
notes: as for B1
As to B16, the “Anti-CD28 Fab signal” value in [1] was 0.07.

B17: Phage-1358 (peptide)
peptide: TCAAGAMWAWPVCL
notes: as for B1
Regarding B17, in [1], the “Anti-CD28 Fab signal” value was 0.09. The “Anti-CD28 Fab (SEQ ID NOs: 696, 697) signal” value in [2] worked out at 2.32.

B18: Peptide-286 (peptide)
peptide: VLKYCIPDWMCAGI
notes: as for B3
Consider B18, for which the “Off rate t1/2” value with PSMA Fab [7] was found to be 3.3 min. The molecule further yielded a half-maximal effective concentration (EC50) with PSMA Fab [8] of 4 nM. The molecule also displayed an IC50 in the experiment with PSMA Fab [9] of 640 nM.

B19: Phage-1359 (peptide)
peptide: MCSAGAMYKWPLCL
notes: as for B1
With B19, the “Anti-CD28 Fab signal” value in experiment [1] amounted to 0.05. For the same molecule, the “Anti-CD28 Fab (SEQ ID NOs: 696, 697) signal” value in experiment [2] was 2.32.

B20: Phage-1348 (peptide)
peptide: SCSAGAAYYWPWCL
notes: as for B1
For B20, in experiment [1], the “Anti-CD28 Fab signal” value stood at 0.09. Besides, the “Anti-CD28 Fab (SEQ ID NOs: 696, 697) signal” value in experiment [2] turned out to be 1.9.

B21: Peptide-285 (peptide)
peptide: VERLCTPAWMCHGF
notes: as for B3
For B21, the “Off rate t1/2” value in the experiment with PSMA Fab [7] was 1.1 min. For the same molecule, in the experiment with PSMA Fab [8], the EC50 came out at 25 nM. This molecule also gave an IC50 in the experiment with PSMA Fab [9] of 710 nM.

B22: Peptide-282 (peptide)
peptide: IVVKCVPSWMCEGF
notes: as for B3
In the case of B22, the “Off rate t1/2” value with PSMA Fab [7] is 1.9 min. It took 9.2 nM to reach a half-maximal effect with PSMA Fab [8] (EC50). This molecule returned a half-inhibitory concentration (IC50) with PSMA Fab [9] of 190 nM.
